This is an account of results in patent US20260217814 (published 2026).

The target in test [1] is T1, human IL-17A (human).
T1 chain: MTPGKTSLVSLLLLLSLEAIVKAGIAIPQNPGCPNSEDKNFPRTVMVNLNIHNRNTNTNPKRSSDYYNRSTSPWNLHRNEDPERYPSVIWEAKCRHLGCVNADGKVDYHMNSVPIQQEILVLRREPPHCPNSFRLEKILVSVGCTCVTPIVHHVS
Put plainly: SPR, capture setup.

For test [2], the target named is T1, human IL-17A. Description: SPR, direct setup.
For a further test, the target named is T2, IL-17C (human).
T2 chain: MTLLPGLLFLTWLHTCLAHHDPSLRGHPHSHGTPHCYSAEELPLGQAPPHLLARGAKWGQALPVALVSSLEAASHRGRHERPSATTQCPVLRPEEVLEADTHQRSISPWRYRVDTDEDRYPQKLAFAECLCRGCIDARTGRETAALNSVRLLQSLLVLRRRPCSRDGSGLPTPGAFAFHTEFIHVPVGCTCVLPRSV
Description: competition ELISA. (In general: In an ELISA, binding on a coated surface is turned into a signal by an enzyme label.)

The target in another test is T3, IL-17D (human).
T3 chain: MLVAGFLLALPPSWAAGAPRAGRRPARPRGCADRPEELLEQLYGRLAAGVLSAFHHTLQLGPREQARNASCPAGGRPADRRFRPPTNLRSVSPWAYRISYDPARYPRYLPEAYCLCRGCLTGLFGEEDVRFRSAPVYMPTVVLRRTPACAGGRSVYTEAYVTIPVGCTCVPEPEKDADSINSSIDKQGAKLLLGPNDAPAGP
Description: competition.

A further test addresses T4, IL-17F (human).
T4 chain: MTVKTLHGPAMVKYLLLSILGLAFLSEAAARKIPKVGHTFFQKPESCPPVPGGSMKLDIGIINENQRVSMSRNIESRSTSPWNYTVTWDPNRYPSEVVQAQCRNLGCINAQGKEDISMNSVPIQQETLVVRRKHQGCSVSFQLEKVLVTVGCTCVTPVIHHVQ
Description: competition ELISA.

For a further test, the target named is T5, IL-17E (human).
T5 chain: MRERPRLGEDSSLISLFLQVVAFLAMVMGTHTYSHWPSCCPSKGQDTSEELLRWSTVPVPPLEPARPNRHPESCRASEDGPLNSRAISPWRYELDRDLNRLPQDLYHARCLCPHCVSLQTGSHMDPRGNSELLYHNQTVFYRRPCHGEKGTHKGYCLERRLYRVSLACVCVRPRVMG
Description: competition ELISA.

The next test deals with T6, IL-17B (human).
T6 chain: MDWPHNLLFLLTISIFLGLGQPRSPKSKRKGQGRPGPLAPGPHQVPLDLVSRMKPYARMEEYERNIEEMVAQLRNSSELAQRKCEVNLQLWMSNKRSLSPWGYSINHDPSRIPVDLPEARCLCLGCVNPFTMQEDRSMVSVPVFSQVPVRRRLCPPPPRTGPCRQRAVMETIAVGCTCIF
Description: competition ELISA.

The target in test [3] is T1, human IL-17A. Description: SPR.
Another test concerns the target human TNFa (human). Put plainly: SPR.

B1: PRO592 (27-31-C04-sc02) (antibody)
chain: DIQMTQSPSSLSASVGDRVTITCQASESIYRYLSWYQQKPGKAPKLLIYLASTLTSGVPSRFSGSGSGTDFTLTISSLQPEDFATYYCQSNFGTASTTYYNTFGGGTKLTVLGGGGGSGGGGSGGGGSGGGGSEVQLVESGGGLVQPGGSLTLSCAASGFSFSGFYYMCWVRQAPGKGLEWIGCIDTGDGTTYYASWAKGRFTISRDNSKNTVYLQMNSLRAEDTAVYYCARDAAYGGYAYPAHGMDLWGPGTLVTVSS
As for B1, the Kd (usually the constant that tells how readily two partners part at equilibrium) was 0.37 nM with human IL-17A [1] and 0.038 nM with human IL-17A [2]. Also, the binding result with IL-17C, with IL-17D, with IL-17F, with IL-17E and with IL-17B was “no binding” throughout.

B2: A4 IL-17A arm (antibody)
chain 1: EVQLVESGGGLVQPGGSLRLSCAASGFSFSSDYWMCWVRQAPGKGLEWIGCIYAGDVDDTDYASWARGRFTISRDNSKNTVYLQMNSLRAEDTAVYYCARVDGFDITYFDLWGQGTLVTVSSASTKGPSVFPLAPSSKSTSGGTAALGCLVKDYFPEPVTVSWNSGALTSGVHTFPAVLQSSGLYSLSSVVTVPSSSLGTQTYICNVNHKPSNTKVDKKVEPKSCGGGGSGGGGSDIQMTQSPSSLSASVGDRVTITCQSSESVYSNNQLSWYQQKPGQPPKLLIYDASDLASGVPSRFSGSGSGTDFTLTISSLQPEDFATYYCAGGFSSSSDTAFGGGTKLTVLGGGGGSGGGGSGGGGSGGGGSEVQLVESGGGLVQPGGSLRLSCAASGFSLSSNAMGWVRQAPGKGLEYIGIISVGGFTYYASWAKGRFTISRDNSKNTVYLQMNSLRAEDTATYFCARDRHGGDSSGAFYLWGQGTLVTVSS
chain 2: DIQMTQSPSSLSASVGDRVTITCQASQTINYWLAWYQQKPGKAPKLLIYRASTLASGVPSRFSGSGSGTDFTLTISSLQPEDFATYYCQNYYYSTSRSYGFGGGTKLTVLGRTRTVAAPSVFIFPPSDEQLKSGTASVVCLLNNFYPREAKVQWKVDNALQSGNSQESVTEQDSKDSTYSLSSTLTLSKADYEKHKVYACEVTHQGLSSPVTKSFNRGECGGGGSGGGGSDIQMTQSPSSLSASVGDRVTINCQASESISSWLAWYQQKPGKRPKLLIYKASTLASGVPSRFSGSGSGTDYTLTISSLQPEDFATYYCQGYYLDSSVDDNVFGGGTKLTVLGGGGGSGGGGSGGGGSGGGGSEVQLVESGGGLVQPGGSLRLSCAASGIDFSTYGISWVRQAPGKGLEWIAYIYPDYGITDYASWVNGRFTISLDNAQNTVYLQMNSLRAEDTAVYYCARSGSYYSRGWGAHYFNLWGQGTLVTVSS
Consider B2, for which, in the test with human IL-17A [3], the Kd came out at 0.337 nM. This counts as sub-nanomolar.

B3: A4 TNFa arm (antibody)
chain 1: B2 chain 1
chain 2: B2 chain 2
As to B3, in the test with human TNFa, binding was characterised by a dissociation constant (Kd) of 0.257 nM.

B4: A3 TNFa arm (antibody)
chain 1: EVQLVESGGGLVQPGGSLRLSCAASGFSLSSNAMGWVRQAPGKGLEYIGIISVGGFTYYASWAKGRFTISRDNSKNTVYLQMNSLRAEDTATYFCARDRHGGDSSGAFYLWGQGTLVTVSSASTKGPSVFPLAPSSKSTSGGTAALGCLVKDYFPEPVTVSWNSGALTSGVHTFPAVLQSSGLYSLSSVVTVPSSSLGTQTYICNVNHKPSNTKVDKKVEPKSCGGGGSGGGGSDIQMTQSPSSLSASVGDRVTITCQASQTINYWLAWYQQKPGKAPKLLIYRASTLASGVPSRFSGSGSGTDFTLTISSLQPEDFATYYCQNYYYSTSRSYGFGGGTKLTVLGGGGGSGGGGSGGGGSGGGGSEVQLVESGGGLVQPGGSLRLSCAASGFSFSSDYWMCWVRQAPGKGLEWIGCIYAGDVDDTDYASWARGRFTISRDNSKNTVYLQMNSLRAEDTAVYYCARVDGFDITYFDLWGQGTLVTVSS
chain 2: DIQMTQSPSSLSASVGDRVTITCQSSESVYSNNQLSWYQQKPGQPPKLLIYDASDLASGVPSRFSGSGSGTDFTLTISSLQPEDFATYYCAGGFSSSSDTAFGGGTKLTVLGRTRTVAAPSVFIFPPSDEQLKSGTASVVCLLNNFYPREAKVQWKVDNALQSGNSQESVTEQDSKDSTYSLSSTLTLSKADYEKHKVYACEVTHQGLSSPVTKSFNRGECGGGGSGGGGSDIQMTQSPSSLSASVGDRVTINCQASESISSWLAWYQQKPGKRPKLLIYKASTLASGVPSRFSGSGSGTDYTLTISSLQPEDFATYYCQGYYLDSSVDDNVFGGGTKLTVLGGGGGSGGGGSGGGGSGGGGSEVQLVESGGGLVQPGGSLRLSCAASGIDFSTYGISWVRQAPGKGLEWIAYIYPDYGITDYASWVNGRFTISLDNAQNTVYLQMNSLRAEDTAVYYCARSGSYYSRGWGAHYFNLWGQGTLVTVSS
B4 gave an equilibrium dissociation constant (Kd) in the test with human TNFa below 0.0232 nM.

B5: A2 (27-07-G02-sc02) (antibody)
chain: DIQMTQSPSSLSASVGDRVTITCQASQTINYWLAWYQQKPGKPPKLLIYRASTLASGVPSRFSGSGSGTDFTLTISSLQPEDFATYYCQNYYYSTSRSYGFGGGTKLTVLGGGGGSGGGGSGGGGSGGGGSEVQLVESGGGLVKPEGSLRLSCAASGFSFSSDYWMCWVRQAPGKGLEWIACIYAGDVDDTDYASWARGRFTISRDNSKNTVYLQMNSLRAEDTAVYYCARVDGFDITYFDLWGQGTLVTVSS
Regarding B5, the values for the Kd with human IL-17A [1] and in the test with human IL-17A [2] were 3 nM and 0.055 nM, respectively. For the same molecule, the binding result with IL-17C, with IL-17D, with IL-17F, in the test with IL-17E and with IL-17B was “no binding” in each case.

B6: A5 TNFa arm (antibody)
chain 1: EVQLVESGGGLVQPGGSLRLSCAASGIDFSTYGISWVRQAPGKGLEWIAYIYPDYGITDYASWVNGRFTISLDNAQNTVYLQMNSLRAEDTAVYYCARSGSYYSRGWGAHYFNLWGQGTLVTVSSASTKGPSVFPLAPSSKSTSGGTAALGCLVKDYFPEPVTVSWNSGALTSGVHTFPAVLQSSGLYSLSSVVTVPSSSLGTQTYICNVNHKPSNTKVDKKVEPKSCGGGGSGGGGSDIQMTQSPSSLSASVGDRVTITCQASQTINYWLAWYQQKPGKAPKLLIYRASTLASGVPSRFSGSGSGTDFTLTISSLQPEDFATYYCQNYYYSTSRSYGFGGGTKLTVLGGGGGSGGGGSGGGGSGGGGSEVQLVESGGGLVQPGGSLRLSCAASGFSFSSDYWMCWVRQAPGKGLEWIGCIYAGDVDDTDYASWARGRFTISRDNSKNTVYLQMNSLRAEDTAVYYCARVDGFDITYFDLWGQGTLVTVSS
chain 2: DIQMTQSPSSLSASVGDRVTINCQASESISSWLAWYQQKPGKRPKLLIYKASTLASGVPSRFSGSGSGTDYTLTISSLQPEDFATYYCQGYYLDSSVDDNVFGGGTKLTVLGRTRTVAAPSVFIFPPSDEQLKSGTASVVCLLNNFYPREAKVQWKVDNALQSGNSQESVTEQDSKDSTYSLSSTLTLSKADYEKHKVYACEVTHQGLSSPVTKSFNRGECGGGGSGGGGSDIQMTQSPSSLSASVGDRVTITCQSSESVYSNNQLSWYQQKPGQPPKLLIYDASDLASGVPSRFSGSGSGTDFTLTISSLQPEDFATYYCAGGFSSSSDTAFGGGTKLTVLGGGGGSGGGGSGGGGSGGGGSEVQLVESGGGLVQPGGSLRLSCAASGFSLSSNAMGWVRQAPGKGLEYIGIISVGGFTYYASWAKGRFTISRDNSKNTVYLQMNSLRAEDTATYFCARDRHGGDSSGAFYLWGQGTLVTVSS
The molecule B6 gave a dissociation constant Kd with human TNFa of 0.1 nM.
